Results on two substances are retold here after doi:10.1101/2020.03.22.002394.

The target in assay [1] is murine κ-opioid receptor (κOR-GFP and SNAP-κOR, two differently tagged copies co-expressed) (murine) (UniProt P33534). Briefly: PhotoGate single-molecule co-localisation imaging.
Assay [2] deals with murine κ-opioid receptor, split GFP pair (SNAP-κOR-GFP10 and κOR-GFP11-mKate co-expressed) (murine) (UniProt P33534). The assay can be described thus: split reporter.

With “murine κ-opioid receptor (κOR-GFP and SNAP-κOR, two differently tagged copies co-expressed) (from UniProt P33534 1-380)”, in assay [1], the co-localization time is 476 ms, the dimeric fraction was less than 100%, the fraction of receptors in yellow spots was determined as 33% and the yellow fraction at a density of 14 / µm^2 turned out to be 10%. The yellow fraction at densities of > 100 / µm^2 in assay [1] turned out to be 46%.
In the case of “murine κ-opioid receptor, split GFP pair (SNAP-κOR-GFP10 and κOR-GFP11-mKate co-expressed) (from UniProt P33534 1-380)”, in assay [2], the GFP-positive fraction stood at 91%.
